Results: patent US20170101472A1 (Regeneron, published 2017)

B1: H4H15479P (antibody, human IgG4, V domains shown)
VH: QVQLQQWGAGLLNPSETLSLTCAVYGGAFSDYYWNWIRQPPGKGLEWIGEINHRGSTNYNPSLKSRVTISVDTSKNQFSLRMSSVTAADAAVYYCARGEDYDIWNGYYQEKWGQGTLVTVSS
VL: EIVLTQSPATLSLSPGERATLSCRASQSISTYLAWYQQKPGQAPRLLIYDASKRATGIPARFSGSGSGTDFTLTISSLEPEDFVVYYCHQRSNWPLTFGGGTKVEIK
B2: H4sH15482P (antibody, human IgG4 S228P, kappa)
heavy: QVQLVESGGGVVQPGRSLRLSCVASGFTFSSYGMHWVRQAPGKGLEWVAIIWYDGSNKYYADSVKGRFTISRDNSKNTQYLQMNSLRAEDTAVYYCASVATSGDFDYYGMDVWGQGTTVTVSSASTKGPSVFPLAPCSRSTSESTAALGCLVKDYFPEPVTVSWNSGALTSGVHTFPAVLQSSGLYSLSSVVTVPSSSLGTKTYTCNVDHKPSNTKVDKRVESKYGPPCPPCPAPPVAGPSVFLFPPKPKDTLMISRTPEVTCVVVDVSQEDPEVQFNWYVDGVEVHNAKTKPREEQFNSTYRVVSVLTVLHQDWLNGKEYKCKVSNKGLPSSIEKTISKAKGQPREPQVYTLPPSQEEMTKNQVSLTCLVKGFYPSDIAVEWESNGQPENNYKTTPPVLDSDGSFFLYSRLTVDKSRWQEGNVFSCSVMHEALHNHYTQKSLSLSLGK
light: EIVLTQSPATLSLSPGERTTLSCRASQRISTYLAWYQQKPGQAPRLLIYDASKRATGIPARFSGSGSGTGFTLTISSLEPEDFAVYYCQQRSNWPLTFGGGTKVEIKRTVAAPSVFIFPPSDEQLKSGTASVVCLLNNFYPREAKVQWKVDNALQSGNSQESVTEQDSKDSTYSLSSTLTLSKADYEKHKVYACEVTHQGLSSPVTKSFNRGEC
notes: H4sH = modified human IgG4 Fc; also called mAb1
B3: H4H15482P (antibody, human IgG4 S228P, kappa)
heavy: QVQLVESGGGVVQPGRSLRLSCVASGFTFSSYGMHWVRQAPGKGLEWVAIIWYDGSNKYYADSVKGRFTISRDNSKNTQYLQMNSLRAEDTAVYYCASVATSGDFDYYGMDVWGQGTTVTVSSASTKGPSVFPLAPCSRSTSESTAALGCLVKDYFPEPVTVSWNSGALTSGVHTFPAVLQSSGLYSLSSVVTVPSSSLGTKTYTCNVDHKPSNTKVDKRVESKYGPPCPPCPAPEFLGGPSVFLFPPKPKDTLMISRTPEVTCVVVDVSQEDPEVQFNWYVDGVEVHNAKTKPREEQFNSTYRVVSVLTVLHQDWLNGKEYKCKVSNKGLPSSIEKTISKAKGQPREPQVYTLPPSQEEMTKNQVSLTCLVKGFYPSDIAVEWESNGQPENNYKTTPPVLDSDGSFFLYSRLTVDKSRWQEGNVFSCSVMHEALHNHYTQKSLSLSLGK
light: B2 light
notes: H4H = human IgG4 Fc with S108P
B4: H4sH15498P2 (antibody, V domains shown)
VH: EVQLVESGGGLVQPGGSLRLSCAASGFTFTSYAMTWVRQAPGKGLEWVSDISGSGGRTYYADSVKGRFTISRDNSKNMLYLQMNILRAEDTAVYHCAKGTGQQVDLYNYYYALDVWGQGTTVTVSS
VL: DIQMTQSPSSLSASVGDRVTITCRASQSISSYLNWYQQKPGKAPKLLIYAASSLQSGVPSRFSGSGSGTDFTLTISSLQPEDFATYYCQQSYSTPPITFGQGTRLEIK
notes: H4sH = human IgG4 Fc with 2 or more amino acid changes as disclosed in US20140243504
B5: H4H15498P2 (antibody, human IgG4, V domains shown)
VH: B4 VH
VL: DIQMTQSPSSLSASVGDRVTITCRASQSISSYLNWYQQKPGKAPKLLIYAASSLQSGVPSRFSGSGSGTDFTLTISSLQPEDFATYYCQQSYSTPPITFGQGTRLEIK
notes: H4H = human IgG4 Fc with S108P hinge mutation
B6: H4sH14813N (antibody, human IgG4 S228P, kappa, V domains shown)
VH: QVQLQQWGAGLLKPSETLSLTCAVYGGSFSGYYWNWIRQPPGKGLEWVGEISHRGSTNYNPSLKSRVTISLDTSKNQFSLKLTSVTAADTAVYYCSRDEELEFRFFDYWGQGTLVTVSS
VL: EIVLTQSPATLSLSPGERATLSCRASQSVSSYLAWYQQKPGQAPRLLVYGASNRATGIPARFSGSGSGTDFTLTISSLEPEDFAFYYCQQRSNWPLTFGGGTKVEIKR
notes: H4sH = modified human IgG4 Fc

What follows are binders tested against T1, human LAG3 chimera (extracellular domain of human LAG3 and trans-membrane/cytoplasmic domain of human CD300a) … (human, UniProt P18627 23-450; Q9UGN4 181-299, limits assumed) (assay: cell-based or functional assay).
T1 sequence (looked up): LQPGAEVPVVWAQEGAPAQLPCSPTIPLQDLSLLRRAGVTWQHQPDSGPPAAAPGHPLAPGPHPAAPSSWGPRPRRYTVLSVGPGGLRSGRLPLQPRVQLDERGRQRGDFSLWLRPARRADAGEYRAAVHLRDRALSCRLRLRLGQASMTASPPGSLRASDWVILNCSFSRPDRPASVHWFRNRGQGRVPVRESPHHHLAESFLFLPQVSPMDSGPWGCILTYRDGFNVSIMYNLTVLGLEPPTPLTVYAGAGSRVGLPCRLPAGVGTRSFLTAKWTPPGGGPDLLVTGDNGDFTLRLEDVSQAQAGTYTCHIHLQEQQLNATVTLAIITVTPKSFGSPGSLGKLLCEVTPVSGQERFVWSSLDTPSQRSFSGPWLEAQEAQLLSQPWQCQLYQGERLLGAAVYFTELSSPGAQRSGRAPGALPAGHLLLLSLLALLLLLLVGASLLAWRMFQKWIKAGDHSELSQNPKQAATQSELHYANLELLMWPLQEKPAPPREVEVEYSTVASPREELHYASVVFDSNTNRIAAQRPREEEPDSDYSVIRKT

Compared with B1, B2 is 3.6-fold higher in “EC50, AP1-Luc signaling, bispecific mode” value: 145 pM for the first, 518 pM for the second.

B3 and B4 cannot be ordered by “EC50, AP1-Luc signaling, bispecific mode” value: > 100000 pM for the first, > 100000 pM for the second.

Compared with B5, B6 is 9.6-fold lower in “EC50, AP1-Luc signaling, bispecific mode” value: 6620 pM for the first, 688 pM for the second.

In order of falling “EC50, AP1-Luc signaling, peptide mode” value:
1. B5  5.89 nM
2. B4  4.61 nM
3. B3  2.48 nM
4. B6  0.816 nM
5. B2  0.806 nM
6. B1  0.284 nM

The binders below were run against T2, recombinant human LAG3 expressed with a C-terminal myc-myc-hexahistidine tag (human, UniProt P18627 29-450) (assay: SPR, mAb captured, 25 C).
T2 construct: also called hLAG3-mmh; hLAG3.mmh
Method: (§1) The BiaCore sensor surface was derivatized with either a polyclonal rabbit anti-mouse antibody (GE, # BR-1008-38) or with a monoclonal mouse anti-human Fc antibody (GE, # BR-1008-39) to capture approximately 50-85 RUs of anti-LAG3 monoclonal antibodies, expressed with either a mouse Fc or a human Fc, respectively. […] The binding of the LAG3 reagents to captured monoclonal antibodies was monitored for 4 minutes while their dissociation from the antibodies was monitored for 8 minutes in HBST running buffer (0.01 M HEPES pH 7.4, 0.15 M NaCl, 3 mM EDTA, 0.05% v/v Surfactant P20). Experiments were performed at 25° C. and 37° C. Kinetic association (kₐ) and dissociation (kd) rate constants were determined by processing and fitting the data to a 1:1 binding model using Scrubber 2.0c curve fitting software. Binding dissociation equilibrium constants (KD) and dissociative half-lives (t_{1/2}) were then calculated from the kinetic rate constants as: KD (M)=kd/kₐ and t_{1/2} (min)=[ln2/(60*kd)].

In order of falling Kd:
1. B2  1.23 nM
2. B3  0.972 nM
3. B4  0.645 nM
4. B5  0.26 nM
5. B6  0.177 nM
6. B1  0.0493 nM

In order of rising koff:
1. B1  5.35e-05 s⁻¹
2. B5  7.81e-05 s⁻¹
3. B6  7.89e-05 s⁻¹
4. B4  0.000101 s⁻¹

In order of rising kon:
1. B4  157000 M⁻¹ s⁻¹
2. B5  301000 M⁻¹ s⁻¹
3. B6  445000 M⁻¹ s⁻¹
4. B1  1.09e+06 M⁻¹ s⁻¹

In order of rising t1/2:
1. B2  44.5 min
2. B3  59.7 min
3. B4  114 min
4. B6  146 min
5. B5  148 min
6. B1  216 min

Target: T3, recombinant human LAG3 expressed with a C-terminal mouse IgG2a mFc tag (human)
T3 construct: Called dimeric; also called hLAG3-mFc; hLAG3 dimer
T3 chain: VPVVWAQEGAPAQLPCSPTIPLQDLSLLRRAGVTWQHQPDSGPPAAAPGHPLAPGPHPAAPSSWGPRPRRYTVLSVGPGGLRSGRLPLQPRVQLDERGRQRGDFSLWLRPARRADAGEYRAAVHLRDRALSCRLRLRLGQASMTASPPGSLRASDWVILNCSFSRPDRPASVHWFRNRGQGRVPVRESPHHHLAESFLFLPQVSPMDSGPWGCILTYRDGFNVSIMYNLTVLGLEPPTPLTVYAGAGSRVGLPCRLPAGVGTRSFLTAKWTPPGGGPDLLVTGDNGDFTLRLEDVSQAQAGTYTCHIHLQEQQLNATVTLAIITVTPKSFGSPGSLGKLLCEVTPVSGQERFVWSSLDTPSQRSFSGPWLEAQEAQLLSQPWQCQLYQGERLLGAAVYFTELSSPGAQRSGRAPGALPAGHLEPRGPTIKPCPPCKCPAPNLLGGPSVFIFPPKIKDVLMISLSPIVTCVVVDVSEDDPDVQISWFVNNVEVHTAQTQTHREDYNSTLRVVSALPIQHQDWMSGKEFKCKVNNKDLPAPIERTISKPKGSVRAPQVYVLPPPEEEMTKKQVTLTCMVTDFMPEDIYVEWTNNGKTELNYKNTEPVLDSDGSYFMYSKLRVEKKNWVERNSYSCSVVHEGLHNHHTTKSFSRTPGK
Test: SPR, mAb captured, 25 C
Method: as §1

B1 and B2 cannot be ordered by Kd: ≤ 0.00435 nM for the first, ≤ 0.0141 nM for the second.

B3 and B4 cannot be ordered by Kd: ≤ 0.0132 nM for the first, ≤ 0.0352 nM for the second.

B5 and B6 cannot be ordered by Kd: ≤ 0.0276 nM for the first, 0.0106 nM for the second.

B1 and B4 cannot be ordered by koff: ≤ 1e-05 s⁻¹ for the first, ≤ 1e-05 s⁻¹ for the second.

First: B5
Second: B6
The koff of the first is lower: ≤ 1e-05 s⁻¹ for the first, 1.9e-05 s⁻¹ for the second.

In order of falling kon:
1. B1  2.3e+06 M⁻¹ s⁻¹
2. B6  1.8e+06 M⁻¹ s⁻¹
3. B5  363000 M⁻¹ s⁻¹
4. B4  284000 M⁻¹ s⁻¹

B1 and B2 cannot be ordered by t1/2: ≥ 1160 min for the first, ≥ 1160 min for the second.

B3 and B4 cannot be ordered by t1/2: ≥ 1160 min for the first, ≥ 1160 min for the second.

First: B5
Second: B6
The t1/2 of the first is higher: ≥ 1160 min for the first, 607 min for the second.
